Experimental data published in patent US11225653B2, “Methods and compounds for reducing threonyl-tRNA synthetase activity” (University of Vermont and State Agricultural College, priority 2012, dated 2022).
“Also recorded” adds a separate entry of the source.

Experiments:
human LARS = biological target: T1, human LARS (Homo sapiens, UniProt Q9P2J5); assay: LARS steady state ATPase activity; type: biochemical; details: 1 μM human LARS
T1 construct: His6 (N); made in house; host or cells: E. coli, plasmid pPROEX hTb-LARS
T1 sequence (Q9P2J5 whole entry): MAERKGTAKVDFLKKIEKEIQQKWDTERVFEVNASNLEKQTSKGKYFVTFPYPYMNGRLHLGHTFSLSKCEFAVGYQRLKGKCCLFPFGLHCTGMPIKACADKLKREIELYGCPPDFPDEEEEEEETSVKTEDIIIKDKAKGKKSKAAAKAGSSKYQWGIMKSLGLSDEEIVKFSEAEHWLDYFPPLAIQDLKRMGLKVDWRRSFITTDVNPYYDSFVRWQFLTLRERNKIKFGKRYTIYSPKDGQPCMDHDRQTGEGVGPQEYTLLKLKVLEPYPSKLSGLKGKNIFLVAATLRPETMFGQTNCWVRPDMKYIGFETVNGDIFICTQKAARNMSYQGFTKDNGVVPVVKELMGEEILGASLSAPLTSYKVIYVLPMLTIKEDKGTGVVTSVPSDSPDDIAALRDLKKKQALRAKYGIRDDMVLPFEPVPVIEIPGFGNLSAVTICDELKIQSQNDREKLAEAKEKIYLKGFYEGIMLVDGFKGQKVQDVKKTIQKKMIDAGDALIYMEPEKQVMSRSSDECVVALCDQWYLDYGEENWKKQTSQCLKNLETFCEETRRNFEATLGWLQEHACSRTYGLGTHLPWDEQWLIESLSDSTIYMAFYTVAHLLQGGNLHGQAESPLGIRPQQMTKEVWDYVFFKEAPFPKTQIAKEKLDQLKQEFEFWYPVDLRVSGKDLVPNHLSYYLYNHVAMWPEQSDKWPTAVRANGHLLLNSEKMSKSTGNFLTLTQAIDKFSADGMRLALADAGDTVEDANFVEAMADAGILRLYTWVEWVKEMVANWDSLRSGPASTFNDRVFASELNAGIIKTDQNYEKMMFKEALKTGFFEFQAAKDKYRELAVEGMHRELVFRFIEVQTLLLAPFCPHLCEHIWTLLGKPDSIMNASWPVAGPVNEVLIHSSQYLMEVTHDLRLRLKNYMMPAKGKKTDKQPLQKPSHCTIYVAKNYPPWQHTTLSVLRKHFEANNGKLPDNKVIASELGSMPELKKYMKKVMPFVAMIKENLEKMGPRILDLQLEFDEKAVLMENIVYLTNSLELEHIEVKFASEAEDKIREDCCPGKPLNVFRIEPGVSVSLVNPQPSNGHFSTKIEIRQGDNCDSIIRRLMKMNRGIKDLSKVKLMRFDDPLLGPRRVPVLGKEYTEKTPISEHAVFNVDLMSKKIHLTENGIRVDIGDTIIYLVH
Experimental: LARS steady state ATPase activity was determined using the same procedure as for TARS aminoacylation with the following modifications. […] ATP (PerkinElmer, Waltham, Mass.) was added. Reactions were incubated for 3 minutes at 37° C. and initiated with the addition of 1 μM human LARS. At various time points 5 μl aliquots were quenched in 45 μl of 500 mM sodium acetate and 0.1% sodium dodecyl sulfate. For each sample, 1 μl was spotted onto a CCM cellulose PEI F plates (EMD) and resolved via thin-layer chromatography in 0.75 M potassium phosphate buffer mobile phase.

[1] = tested on: chorioallantoic membrane (CAM); assay: Chick chorioallantoic membrane (CAM) assay; type: in vivo, chicken; details: purified protein applied daily to sponge, scored over 72 h
Experimental: Chick Chorioallantoic Membrane Assay-Fertilized chicken eggs (Sunrise Farms, Catskill, N.Y.) day 1-2 post-laying were incubated in a humidified incubator at 37° C. for 72 h. Cleaned eggs were cracked and plated in a sterile 10 cm^2 tissue culture-treated dish and incubated at 37° C. for another 7 days. On developmental day 10, 1 mm^3 sterile gelatin sponge pieces (Surgifoam®; Johnson & Johnson Wound Management, Somerville, N.J.) were placed within the outer one-third of the membrane between large vessels. 40 μg/ml human bFGF and 2 μg/mL human VEGF were used as pro-angiogenic control compounds; 100 μg/mL retinoic acid (Sigma-Aldrich, St. Louis, Mo.) diluted in phosphate-buffered saline (PBS) was used as an angiostatic control. All compounds were applied in 10 μl to the CAM every 24 h for 72 h. Images were taken using a Leica MZ6 stereomicroscope every 24 h. Compounds were scored according to a modified version of Intensity Scoring as previously described (Ribatti, Nico et al. 2006). Briefly, each experimental condition was given a blinded score from 0-5 based on the change in the extent of vessel convergence and formation in proximity to the sponge from day 0 to day 3. Total score is averaged individual experimental condition scores from at least 15 replicates.
Fertilized chicken embryos were cultured ex-ova and, starting at developmental day 10, agents were applied daily to gelfoam sponges on the CAM. Images were recorded daily over 72 h and scored blindly according to a modified version Intensity Scoring as previously described (Ribatti, Nico et al. 2006). Additional details regarding methods are provided in the Methods and Materials section of Example 1.

Substance: LARS: N-terminal His6-tagged human leucyl tRNA synthetase
- enzyme activity as conversion of 32P-ATP to AMP (human LARS): exhibits enzyme activity
- vessel formation / vascularization on the CAM after applied protein [1]: no observable effect on vascularization; also recorded: has no effect on angiogenesis
